Measured values taken from patent US20260242735A1 (UNIVERSIT T BASEL, published 2026).

Assays:
Assay in all cases: flow cytometry, IgG on cells expressing the mutant
human CD33 variant K52I = human CD33 variant K52I (human, UniProt P20138 18-364)
human CD33 variant Y50P = human CD33 variant Y50P (human, UniProt P20138 18-364)
human CD33 variant K52L = human CD33 variant K52L (human, UniProt P20138 18-364)
human CD33 variant P48D = human CD33 variant P48D (human, UniProt P20138 18-364)
human CD33 variant Y49L = human CD33 variant Y49L (human, UniProt P20138 18-364)
human CD33 variant K52Y = human CD33 variant K52Y (human, UniProt P20138 18-364)
human CD33 variant M120L = human CD33 variant M120L (human, UniProt P20138 18-364)
human CD33 variant M120I = human CD33 variant M120I (human, UniProt P20138 18-364)
human CD33 variant D51Y = human CD33 variant D51Y (human, UniProt P20138 18-364)
human CD33 variant Y50I = human CD33 variant Y50I (human, UniProt P20138 18-364)
human CD33 variant Y49S = human CD33 variant Y49S (human, UniProt P20138 18-364)
human CD33 variant Y50S = human CD33 variant Y50S (human, UniProt P20138 18-364)
human CD33 variant R122E = human CD33 variant R122E (human, UniProt P20138 18-364)
human CD33 variant R122G = human CD33 variant R122G (human, UniProt P20138 18-364)
human CD33 variant Y49R = human CD33 variant Y49R (human, UniProt P20138 18-364)
human CD33 variant K52E = human CD33 variant K52E (human, UniProt P20138 18-364)
human CD33 variant Y49G = human CD33 variant Y49G (human, UniProt P20138 18-364)
human CD33 variant Y49Q = human CD33 variant Y49Q (human, UniProt P20138 18-364)
human CD33 variant P48G = human CD33 variant P48G (human, UniProt P20138 18-364)
human CD33 variant K52H = human CD33 variant K52H (human, UniProt P20138 18-364)
human CD33 variant P48T = human CD33 variant P48T (human, UniProt P20138 18-364)
human CD33 variant R122S = human CD33 variant R122S (human, UniProt P20138 18-364)
human CD33 variant Y50H = human CD33 variant Y50H (human, UniProt P20138 18-364)
human CD33 variant P48I = human CD33 variant P48I (human, UniProt P20138 18-364)
human CD33 variant Y49P = human CD33 variant Y49P (human, UniProt P20138 18-364)
human CD33 variant P48M = human CD33 variant P48M (human, UniProt P20138 18-364)
human CD33 variant Y127E = human CD33 variant Y127E (human, UniProt P20138 18-364)
human CD33 variant Y50V = human CD33 variant Y50V (human, UniProt P20138 18-364)
human CD33 variant Y50L = human CD33 variant Y50L (human, UniProt P20138 18-364)
human CD33 variant Y127H = human CD33 variant Y127H (human, UniProt P20138 18-364)
human CD33 variant P48H = human CD33 variant P48H (human, UniProt P20138 18-364)
human CD33 variant P48K = human CD33 variant P48K (human, UniProt P20138 18-364)
human CD33 variant P48F = human CD33 variant P48F (human, UniProt P20138 18-364)
human CD33 variant P48S = human CD33 variant P48S (human, UniProt P20138 18-364)
human CD33 variant Y50D = human CD33 variant Y50D (human, UniProt P20138 18-364)
human CD33 variant Y129S = human CD33 variant Y129S (human, UniProt P20138 18-364)

Chain of human CD33 variant R122E (P20138 18-364 R122E limits assumed): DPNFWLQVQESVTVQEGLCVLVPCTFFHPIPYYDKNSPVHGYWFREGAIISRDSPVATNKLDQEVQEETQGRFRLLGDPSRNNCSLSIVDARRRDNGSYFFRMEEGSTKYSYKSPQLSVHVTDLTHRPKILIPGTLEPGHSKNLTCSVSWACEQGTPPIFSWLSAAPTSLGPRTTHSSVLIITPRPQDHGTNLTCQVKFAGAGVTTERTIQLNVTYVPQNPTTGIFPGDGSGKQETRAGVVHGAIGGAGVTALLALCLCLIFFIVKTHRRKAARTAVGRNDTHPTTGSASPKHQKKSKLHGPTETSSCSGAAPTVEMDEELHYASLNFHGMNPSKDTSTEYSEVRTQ
Chain of human CD33 variant D51Y (P20138 18-364 D51Y limits assumed): as the sequence (P20138 18-364 R122E limits assumed) above, with D34Y, E105R counted along it
Chain of human CD33 variant P48M (P20138 18-364 P48M limits assumed): as the sequence (P20138 18-364 R122E limits assumed) above, with P31M, E105R counted along it
Chain of human CD33 variant P48F (P20138 18-364 P48F limits assumed): as the sequence (P20138 18-364 R122E limits assumed) above, with P31F, E105R counted along it
Chain of human CD33 variant M120L (P20138 18-364 M120L limits assumed): as the sequence (P20138 18-364 R122E limits assumed) above, with M103L, E105R counted along it
Chain of human CD33 variant Y50V (P20138 18-364 Y50V limits assumed): as the sequence (P20138 18-364 R122E limits assumed) above, with Y33V, E105R counted along it
Chain of human CD33 variant K52H (P20138 18-364 K52H limits assumed): as the sequence (P20138 18-364 R122E limits assumed) above, with K35H, E105R counted along it
Chain of human CD33 variant M120I (P20138 18-364 M120I limits assumed): as the sequence (P20138 18-364 R122E limits assumed) above, with M103I, E105R counted along it
Chain of human CD33 variant K52I (P20138 18-364 K52I limits assumed): as the sequence (P20138 18-364 R122E limits assumed) above, with K35I, E105R counted along it
Chain of human CD33 variant Y49L (P20138 18-364 Y49L limits assumed): as the sequence (P20138 18-364 R122E limits assumed) above, with Y32L, E105R counted along it
Chain of human CD33 variant K52Y (P20138 18-364 K52Y limits assumed): as the sequence (P20138 18-364 R122E limits assumed) above, with K35Y, E105R counted along it
Chain of human CD33 variant P48H (P20138 18-364 P48H limits assumed): as the sequence (P20138 18-364 R122E limits assumed) above, with P31H, E105R counted along it
Chain of human CD33 variant Y127H (P20138 18-364 Y127H limits assumed): as the sequence (P20138 18-364 R122E limits assumed) above, with E105R, Y110H counted along it
Chain of human CD33 variant P48T (P20138 18-364 P48T limits assumed): as the sequence (P20138 18-364 R122E limits assumed) above, with P31T, E105R counted along it

| Binder | Mean % WT Binding (human CD33 variant K52I) | Mean % WT Binding (human CD33 variant Y50P) | Mean % WT Binding (human CD33 variant K52L) | Mean % WT Binding (human CD33 variant P48D) | Mean % WT Binding (human CD33 variant Y49L) | Mean % WT Binding (human CD33 variant K52Y) | Mean % WT Binding (human CD33 variant M120L) | Mean % WT Binding (human CD33 variant M120I) | Mean % WT Binding (human CD33 variant D51Y) | Mean % WT Binding (human CD33 variant Y50I) | Mean % WT Binding (human CD33 variant Y50S) | Mean % WT Binding (human CD33 variant R122E) | Mean % WT Binding (human CD33 variant R122G) | Mean % WT Binding (human CD33 variant Y49R) | Mean % WT Binding (human CD33 variant K52E) | Mean % WT Binding (human CD33 variant Y49Q) | Mean % WT Binding (human CD33 variant P48G) | Mean % WT Binding (human CD33 variant K52H) | Mean % WT Binding (human CD33 variant P48T) | Mean % WT Binding (human CD33 variant R122S) | also measured |
| --- | --- | --- | --- | --- | --- | --- | --- | --- | --- | --- | --- | --- | --- | --- | --- | --- | --- | --- | --- | --- | --- |
| Refmab #3 (antibody, human IgG1, V domains shown, Tested in IgG format; human IgG1 Fc silent (PG-LALA)) VH: QVQLVQSGAEVKKPGSSVKVSCKASGYTFTDYNMHWVRQAPGQGLEWIGYIYPYNGGTGYNQKFKSKATITADESTNTAYMELSSLRSEDTAVYYCARGRPAMDYWGQGTLVTVSS VL: DIQMTQSPSSLSASVGDRVTITCRASESVDNYGISFMNWFQQKPGKAPKLLIYAASNQGSGVPSRFSGSGSGTDFTLTISSLQPDDFATYYCQQSKEVPWTFGQGTKVEIK | 88.7 % of WT | 103 % of WT | 94.9 % of WT | 100 % of WT | 93.8 % of WT | 41.7 % of WT | 90.8 % of WT | 81.6 % of WT | 87.2 % of WT | 92.8 % of WT | 97.2 % of WT | 101 % of WT | 114 % of WT | 79 % of WT | 106 % of WT | 102 % of WT | 108 % of WT | 101 % of WT | 102 % of WT | 111 % of WT | Mean % WT Binding (human CD33 variant Y49S): 107 % of WT; Mean % WT Binding (human CD33 variant Y49G): 108 % of WT; Mean % WT Binding (human CD33 variant Y50H): 111 % of WT; Mean % WT Binding (human CD33 variant P48I): 122 % of WT; Mean % WT Binding (human CD33 variant Y49P): 92.1 % of WT; Mean % WT Binding (human CD33 variant P48M): 106 % of WT; Mean % WT Binding (human CD33 variant Y127E): 21.5 % of WT; Mean % WT Binding (human CD33 variant Y50V): 108 % of WT; Mean % WT Binding (human CD33 variant Y50L): 106 % of WT; Mean % WT Binding (human CD33 variant Y127H): 75.4 % of WT; Mean % WT Binding (human CD33 variant P48H): 87.6 % of WT; Mean % WT Binding (human CD33 variant P48K): 67.3 % of WT; Mean % WT Binding (human CD33 variant P48F): 100 % of WT; Mean % WT Binding (human CD33 variant P48S): 100 % of WT; Mean % WT Binding (human CD33 variant Y50D): 100 % of WT |
| Refmab #4 (antibody, human IgG1, V domains shown, Tested in IgG format; human IgG1 Fc silent (PG-LALA)) VH: QVQLVQSGAEVKKPGESVKVSCKASGYTFTNYGMNWVKQAPGQGLEWMGWINTYTGEPTYADKFQGRVTMTTDTSTSTAYMEIRNLGGDDTAVYYCARWSWSDGYYVYFDYWGQGTSVTVSS VL: DIVMTQSPDSLTVSLGERTTINCKSSQSVLDSSTNKNSLAWYQQKPGQPPKLLLSWASTRESGIPDRFSGSGSGTDFTLTIDSPQPEDSATYYCQQSAHFPITFGQGTRLEIK | 61.9 % of WT | 85.6 % of WT | 88.1 % of WT | 2 % of WT | 110 % of WT | 20.7 % of WT | 110 % of WT | 101 % of WT | 61.9 % of WT | 4.5 % of WT | 2.9 % of WT | 79.2 % of WT | 91.3 % of WT | 55.7 % of WT | 51.4 % of WT | 91.9 % of WT | 0.4 % of WT | 75.1 % of WT | 11.7 % of WT | 90.2 % of WT | Mean % WT Binding (human CD33 variant Y129S): 107 % of WT; Mean % WT Binding (human CD33 variant Y49G): 54.9 % of WT; Mean % WT Binding (human CD33 variant Y50H): 2 % of WT; Mean % WT Binding (human CD33 variant P48I): 31.9 % of WT; Mean % WT Binding (human CD33 variant Y49P): 1.2 % of WT; Mean % WT Binding (human CD33 variant P48M): 1.3 % of WT; Mean % WT Binding (human CD33 variant Y127E): 104 % of WT; Mean % WT Binding (human CD33 variant Y50V): 1.7 % of WT; Mean % WT Binding (human CD33 variant Y50L): 1.9 % of WT; Mean % WT Binding (human CD33 variant Y127H): 105 % of WT; Mean % WT Binding (human CD33 variant P48H): 2.9 % of WT; Mean % WT Binding (human CD33 variant P48K): 0 % of WT; Mean % WT Binding (human CD33 variant P48F): 0.3 % of WT; Mean % WT Binding (human CD33 variant P48S): 0.5 % of WT; Mean % WT Binding (human CD33 variant Y50D): 0.9 % of WT |
| Refmab #2 (antibody, human IgG1, V domains shown, Tested in IgG format; human IgG1 Fc silent (PG-LALA)) VH: QVQLVQSGAEVKKPGSSVKVSCKASGGTFSDYAISWVRQAPGQGLEWMGRIIPILGVADYAQKFQGRVTITADKSTRTAYMELSSLRSEDTAVYYCARNWADAFDIWGQGTMVTVSS VL: DIQLTQSPSSLSASVGDRVTITCRASQGISSVLAWYQQKPGKAPKLLIYDASSLESGVPSRFSGSGSGTDFTLTISSLQPEDFATYYCQQFDSSITFGQGTKLEIK | 86.8 % of WT | 95.8 % of WT | 74.8 % of WT | 10.4 % of WT | 108 % of WT | 21 % of WT | 124 % of WT | 95.7 % of WT | 69.8 % of WT | 126 % of WT | 123 % of WT | 0.6 % of WT | 12.2 % of WT | 44.9 % of WT | 52.4 % of WT | 17.4 % of WT | 80.8 % of WT | 84.7 % of WT | 71.3 % of WT | 3.4 % of WT | Mean % WT Binding (human CD33 variant Y49S): 87.2 % of WT; Mean % WT Binding (human CD33 variant Y129S): 102 % of WT; Mean % WT Binding (human CD33 variant Y50H): 119 % of WT; Mean % WT Binding (human CD33 variant P48I): 81.9 % of WT; Mean % WT Binding (human CD33 variant Y49P): 6.9 % of WT; Mean % WT Binding (human CD33 variant P48M): 87.5 % of WT; Mean % WT Binding (human CD33 variant Y127E): 105 % of WT; Mean % WT Binding (human CD33 variant Y50V): 126 % of WT; Mean % WT Binding (human CD33 variant Y50L): 119 % of WT; Mean % WT Binding (human CD33 variant Y127H): 114 % of WT; Mean % WT Binding (human CD33 variant P48H): 81.9 % of WT; Mean % WT Binding (human CD33 variant P48K): 106 % of WT; Mean % WT Binding (human CD33 variant P48F): 68.7 % of WT; Mean % WT Binding (human CD33 variant P48S): 92.1 % of WT; Mean % WT Binding (human CD33 variant Y50D): 112 % of WT |
